Measurements as given in paper PMC10397247.

Experiments:
4H3628-bN = target: T1, 4H3628-bN; assay: two-hybrid library CCNG1;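 note: natural log of median RNA to DNA barcode read ratio; higher means stronger binding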
T1 chain: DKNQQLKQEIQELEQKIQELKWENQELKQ

4H1710-bN = target: T2, 4H1710-bN; assay: two-hybrid library CCNG1;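 note: natural log of median RNA to DNA barcode read ratio; higher means stronger binding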
T2 chain: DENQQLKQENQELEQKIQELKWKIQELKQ

4H363-bN = target: T3, 4H363-bN; assay: two-hybrid library CCNG1;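 note: natural log of median RNA to DNA barcode read ratio; higher means stronger binding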
T3 chain: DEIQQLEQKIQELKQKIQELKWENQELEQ

4H1449-bN = target: T4, 4H1449-bN; assay: two-hybrid library CCNG1;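 note: natural log of median RNA to DNA barcode read ratio; higher means stronger binding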
T4 chain: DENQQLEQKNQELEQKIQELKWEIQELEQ

4H619-bN = target: T5, 4H619-bN; assay: two-hybrid library CCNG1;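 note: natural log of median RNA to DNA barcode read ratio; higher means stronger binding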
T5 chain: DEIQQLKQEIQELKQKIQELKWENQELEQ

4H1393-bN = target: T6, 4H1393-bN; assay: two-hybrid library CCNG1;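 note: natural log of median RNA to DNA barcode read ratio; higher means stronger binding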
T6 chain: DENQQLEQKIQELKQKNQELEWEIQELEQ

4H1359-bN = target: T7, 4H1359-bN; assay: two-hybrid library CCNG1
T7 chain: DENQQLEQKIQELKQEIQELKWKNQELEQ

4H3631-bN = target: T8, 4H3631-bN; assay: two-hybrid library CCNG1
T8 chain: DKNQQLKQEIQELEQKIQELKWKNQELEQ

4H1899-bN = target: T9, 4H1899-bN; assay: two-hybrid library CCNG1
T9 chain: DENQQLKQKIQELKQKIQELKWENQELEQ

4H3414-bN = target: T10, 4H3414-bN; assay: two-hybrid library CCNG1
T10 chain: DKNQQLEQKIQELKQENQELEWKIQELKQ

4H906-bN = target: T11, 4H906-bN; assay: two-hybrid library CCNG1
T11 chain: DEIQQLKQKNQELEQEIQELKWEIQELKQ

4H1804-bN = target: T12, 4H1804-bN; assay: two-hybrid library CCNG1
T12 chain: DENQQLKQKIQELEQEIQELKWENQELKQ

4H1985-bN = target: T13, 4H1985-bN; assay: two-hybrid library CCNG1
T13 chain: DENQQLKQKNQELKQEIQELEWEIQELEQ

4H3858-bN = target: T14, 4H3858-bN; assay: two-hybrid library CCNG1
T14 chain: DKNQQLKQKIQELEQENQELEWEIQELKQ

O9-bH = target: T15, O9-bH; assay: two-hybrid library CCNG1
T15 chain: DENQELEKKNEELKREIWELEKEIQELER

4H1348-bN = target: T16, 4H1348-bN; assay: two-hybrid library CCNG1
T16 chain: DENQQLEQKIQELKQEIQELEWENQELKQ

4H570-bN = target: T17, 4H570-bN; assay: two-hybrid library CCNG1
T17 chain: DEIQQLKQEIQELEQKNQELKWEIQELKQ

4H3172-bN = target: T18, 4H3172-bN; assay: two-hybrid library CCNG1
T18 chain: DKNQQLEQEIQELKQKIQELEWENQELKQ

4H3926-bN = target: T19, 4H3926-bN; assay: two-hybrid library CCNG1
T19 chain: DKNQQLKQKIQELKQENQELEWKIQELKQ

4H3613-bN = target: T20, 4H3613-bN; assay: two-hybrid library CCNG1
T20 chain: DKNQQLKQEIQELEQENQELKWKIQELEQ

4H1629-bN = target: T21, 4H1629-bN; assay: two-hybrid library CCNG1
T21 chain: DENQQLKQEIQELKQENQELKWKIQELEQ

4H3638-bN = target: T22, 4H3638-bN; assay: two-hybrid library CCNG1
T22 chain: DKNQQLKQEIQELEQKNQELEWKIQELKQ

4H584-bN = target: T23, 4H584-bN; assay: two-hybrid library CCNG1
T23 chain: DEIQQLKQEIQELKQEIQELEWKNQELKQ

4H3817-bN = target: T24, 4H3817-bN; assay: two-hybrid library CCNG1
T24 chain: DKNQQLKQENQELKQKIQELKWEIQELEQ

4H1338-bN = target: T25, 4H1338-bN; assay: two-hybrid library CCNG1
T25 chain: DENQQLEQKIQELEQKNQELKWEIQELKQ

4H3817-bA = target: T26, 4H3817-bA; assay: two-hybrid library CCNG1
T26 chain: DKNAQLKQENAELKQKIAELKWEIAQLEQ

4H1222-bN = target: T27, 4H1222-bN; assay: two-hybrid library CCNG1
T27 chain: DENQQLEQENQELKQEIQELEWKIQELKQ

4H3974-bN = target: T28, 4H3974-bN; assay: two-hybrid library CCNG1
T28 chain: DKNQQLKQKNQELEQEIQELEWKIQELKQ

4H1544-bN = target: T29, 4H1544-bN; assay: two-hybrid library CCNG1
T29 chain: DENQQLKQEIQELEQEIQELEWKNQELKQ

4H1373-bN = target: T30, 4H1373-bN; assay: two-hybrid library CCNG1
T30 chain: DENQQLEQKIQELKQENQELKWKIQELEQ

4H850-bN = target: T31, 4H850-bN; assay: two-hybrid library CCNG1
T31 chain: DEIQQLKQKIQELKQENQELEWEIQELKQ

4H3129-bN = target: T32, 4H3129-bN; assay: two-hybrid library CCNG1
T32 chain: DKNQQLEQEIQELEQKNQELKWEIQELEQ

4H48-bH = target: T33, 4H48-bH; assay: two-hybrid library CCNG1
T33 chain: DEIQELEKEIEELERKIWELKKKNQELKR

4H2883-bH = target: T34, 4H2883-bH; assay: two-hybrid library CCNG1
T34 chain: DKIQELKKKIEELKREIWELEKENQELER

4H342-bH = target: T35, 4H342-bH; assay: two-hybrid library CCNG1
T35 chain: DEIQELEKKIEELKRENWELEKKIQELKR

4H2937-bH = target: T36, 4H2937-bH; assay: two-hybrid library CCNG1
T36 chain: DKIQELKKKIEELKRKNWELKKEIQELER

4H2696-bH = target: T37, 4H2696-bH; assay: two-hybrid library CCNG1
T37 chain: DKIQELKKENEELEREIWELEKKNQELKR

4H2944-bH = target: T38, 4H2944-bH; assay: two-hybrid library CCNG1
T38 chain: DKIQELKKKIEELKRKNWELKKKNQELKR

4H491-bH = target: T39, 4H491-bH; assay: two-hybrid library CCNG1
T39 chain: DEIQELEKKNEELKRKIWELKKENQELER

4H19-bH = target: T40, 4H19-bH; assay: two-hybrid library CCNG1
T40 chain: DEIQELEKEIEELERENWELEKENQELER

4H2915-bH = target: T41, 4H2915-bH; assay: two-hybrid library CCNG1
T41 chain: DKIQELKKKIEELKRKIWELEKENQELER

4H2473-bH = target: T42, 4H2473-bH; assay: two-hybrid library CCNG1
T42 chain: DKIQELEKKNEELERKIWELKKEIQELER

4H3277-bH = target: T43, 4H3277-bH; assay: two-hybrid library CCNG1
T43 chain: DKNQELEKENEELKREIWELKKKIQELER

4H121-bH = target: T44, 4H121-bH; assay: two-hybrid library CCNG1
T44 chain: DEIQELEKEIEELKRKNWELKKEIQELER

4H477-bH = target: T45, 4H477-bH; assay: two-hybrid library CCNG1
T45 chain: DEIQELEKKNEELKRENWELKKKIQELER

4H182-bH = target: T46, 4H182-bH; assay: two-hybrid library CCNG1
T46 chain: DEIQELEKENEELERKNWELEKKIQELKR

4H2717-bH = target: T47, 4H2717-bH; assay: two-hybrid library CCNG1
T47 chain: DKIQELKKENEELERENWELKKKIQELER

4H2503-bH = target: T48, 4H2503-bH; assay: two-hybrid library CCNG1
T48 chain: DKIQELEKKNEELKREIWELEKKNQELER

4H492-bH = target: T49, 4H492-bH; assay: two-hybrid library CCNG1
T49 chain: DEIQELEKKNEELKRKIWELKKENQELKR

4H2839-bH = target: T50, 4H2839-bH; assay: two-hybrid library CCNG1
T50 chain: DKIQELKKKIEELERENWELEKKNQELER

4H2588-bH = target: T51, 4H2588-bH; assay: two-hybrid library CCNG1
T51 chain: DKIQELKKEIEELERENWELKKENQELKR

4H40-bH = target: T52, 4H40-bH; assay: two-hybrid library CCNG1
T52 chain: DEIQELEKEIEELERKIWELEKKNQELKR

4H2223-bH = target: T53, 4H2223-bH; assay: two-hybrid library CCNG1
T53 chain: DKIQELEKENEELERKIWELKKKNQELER

4H319-bH = target: T54, 4H319-bH; assay: two-hybrid library CCNG1
T54 chain: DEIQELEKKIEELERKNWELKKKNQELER

4H2692-bH = target: T55, 4H2692-bH; assay: two-hybrid library CCNG1
T55 chain: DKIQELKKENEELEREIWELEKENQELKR

4H348-bH = target: T56, 4H348-bH; assay: two-hybrid library CCNG1
T56 chain: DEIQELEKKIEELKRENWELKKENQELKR

4H2438-bH = target: T57, 4H2438-bH; assay: two-hybrid library CCNG1
T57 chain: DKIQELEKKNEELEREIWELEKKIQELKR

4H2134-bH = target: T58, 4H2134-bH; assay: two-hybrid library CCNG1
T58 chain: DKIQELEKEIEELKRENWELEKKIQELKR

4H3057-bH = target: T59, 4H3057-bH; assay: two-hybrid library CCNG1
T59 chain: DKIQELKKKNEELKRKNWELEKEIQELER

4H2143-bH = target: T60, 4H2143-bH; assay: two-hybrid library CCNG1
T60 chain: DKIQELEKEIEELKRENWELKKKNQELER

4H741-bH = target: T61, 4H741-bH; assay: two-hybrid library CCNG1
T61 chain: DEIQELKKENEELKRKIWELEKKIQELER

Core_INNN-es_KEEE = target: T62, Core_INNN-es_KEEE; assay: two-hybrid library CCmax; conditions: mean of both orientations
T62 chain: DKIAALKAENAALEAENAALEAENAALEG

Core_NINN-es_KEEE = target: T63, Core_NINN-es_KEEE; assay: two-hybrid library CCmax; conditions: mean of both orientations
T63 chain: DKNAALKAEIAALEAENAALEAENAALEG

DENQQLEQENQELKQEIQELEWKIQELKQ [4H1222-bN]
interaction score (4H3628-bN): -0.764 | interaction score (4H1710-bN): 0.715 | interaction score (4H363-bN): -0.189 | interaction score (4H1449-bN): -0.277 | interaction score (4H619-bN): -0.785 | interaction score (4H1393-bN): -0.718 | interaction score (4H1359-bN): 0.554 | interaction score (4H3631-bN): 0.357 | interaction score (4H1899-bN): -0.657 | interaction score (4H3414-bN): 0.105 | interaction score (4H906-bN): -1.3 | interaction score (4H1804-bN): 0.407 | interaction score (4H1985-bN): -2.04 | interaction score (4H3858-bN): -0.767 | interaction score (O9-bH): 1.11 | interaction score (4H1348-bN): -2.2 | interaction score (4H570-bN): -0.0662 | interaction score (4H3172-bN): -0.0903 | interaction score (4H3926-bN): 0.755 | interaction score (4H3613-bN): 0.482 | interaction score (4H1629-bN): 0.612 | interaction score (4H3638-bN): 0.921 | interaction score (4H584-bN): -0.959 | interaction score (4H3817-bN): 2.15 | interaction score (4H1338-bN): 0.344 | interaction score (4H3817-bA): 1.4 | interaction score (4H1222-bN): -1.63 | interaction score (4H3974-bN): -0.957 | interaction score (4H1544-bN): -1.38 | interaction score (4H1373-bN): -0.0597 | interaction score (4H850-bN): 0.741 | interaction score (4H3129-bN): -0.201

DEIQELEKEIEELERENWELEKENQELER [4H19-bH]
interaction score (4H48-bH): -1.56 | interaction score (4H2883-bH): 1.05 | interaction score (4H342-bH): -0.785 | interaction score (4H2937-bH): 0.634 | interaction score (4H2696-bH): 0.41 | interaction score (4H2944-bH): 1.17 | interaction score (4H491-bH): 0.299 | interaction score (4H19-bH): -0.777

DEIQELEKEIEELKRKNWELKKEIQELER [4H121-bH]
interaction score (4H2915-bH): 0.235 | interaction score (4H2473-bH): -0.404 | interaction score (4H3277-bH): -0.678 | interaction score (4H121-bH): -0.364 | interaction score (4H477-bH): -1.3 | interaction score (4H182-bH): 0.0625 | interaction score (4H2717-bH): 0.068 | interaction score (4H2503-bH): -0.913 | interaction score (4H492-bH): -0.574 | interaction score (4H2839-bH): 1.02 | interaction score (4H2588-bH): -1.11 | interaction score (4H40-bH): -1.44 | interaction score (4H2223-bH): 1.48 | interaction score (4H319-bH): -1.11 | interaction score (4H2692-bH): 0.482 | interaction score (4H348-bH): -0.636 | interaction score (4H2438-bH): 1.45 | interaction score (4H2134-bH): 1.11 | interaction score (4H3057-bH): 0.547 | interaction score (4H2143-bH): 0.472 | interaction score (4H741-bH): -0.43

DEIAALEAKNAALKAKNAALKAKNAALKG [Core_INNN-es_EKKK]
interaction score (Core_INNN-es_KEEE): 1.79

DENAALEAKIAALKAKNAALKAKNAALKG [Core_NINN-es_EKKK]
interaction score (Core_NINN-es_KEEE): 2.12
